Patent publication US20170306005A1 (NASCIENT, published 2017)

Legend:
[1] = target: T1, human tenascin-C rCd4-His-FBG (rat; human, UniProt P05540 207-392, limits assumed); assay: SPR, captured purified IgG4, 37 C
T1 construct: domain: domains 3 and 4; C-terminal FBG fusion; biotinylated in the ELISA and HTRF screens; also called Hu TNC; human TNC rCd4-His-FBG; not shown: 6His tag
T1 sequence (chain (part 1 of 2)): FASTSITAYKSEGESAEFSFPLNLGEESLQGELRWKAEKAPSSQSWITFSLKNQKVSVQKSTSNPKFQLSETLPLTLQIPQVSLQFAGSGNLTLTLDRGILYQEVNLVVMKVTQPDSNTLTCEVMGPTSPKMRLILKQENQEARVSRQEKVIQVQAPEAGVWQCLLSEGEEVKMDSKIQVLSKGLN
T1 sequence (chain (part 2 of 2)): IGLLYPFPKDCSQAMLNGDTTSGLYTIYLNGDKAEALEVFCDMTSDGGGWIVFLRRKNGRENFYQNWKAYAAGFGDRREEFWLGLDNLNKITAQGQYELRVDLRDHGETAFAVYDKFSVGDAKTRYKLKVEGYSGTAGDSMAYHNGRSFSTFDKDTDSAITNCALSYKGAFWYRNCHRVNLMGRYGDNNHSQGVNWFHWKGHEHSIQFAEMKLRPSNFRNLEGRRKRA
Procedure: (§1) Detailed kinetic parameters were evaluated for the 9 prioritised IgG4 antibodies. Binding characteristics were determined for interaction with human, rat and dog TNC rCD4-His-FBG, and human TNR rCD4-His-FBG. Kinetic assays followed essentially the same protocols as for the off-rate determinations described above, with some modifications as follows. […] Purified anti-FBG IgG4 was diluted to a concentration of 3.5 nM in PBS, pH 7.4, 0.05% Tween-20 and injected into FC2 at a flow rate of 10 μl/min, 60 s contact time. […] Antigens were prepared by doubling dilution in PBS, pH 7.4, 0.05% Tween-20 (highest concentration 100 nM except mouse rCD4-His-FBG which was 7 nM). Assays were performed at 37° C. (30 μl/min, 120 s contact time; mouse rCD4-His-FBGFBG 10 μl/min, 60 s contact time), with both the flow cell and injection chamber equilibrated to this temperature. As before, kinetic parameters were determined by reference cell subtraction and fitting the sensogram experimental data assuming a 1:1 interaction using BIAevaluation software (GE, BR-1005-97).

[2] = target: T2, mouse tenascin-C rCd4-His-FBG (rat; mouse, UniProt P05540 207-392, limits assumed); assay: SPR, captured purified IgG4, 37 C
T2 construct: domain: domains 3 and 4; C-terminal FBG fusion; biotinylated in the ELISA screen; also called Mu TNC; mouse TNC rCd4-His-FBG; not shown: 6His tag
T2 sequence (chain (part 1 of 2)): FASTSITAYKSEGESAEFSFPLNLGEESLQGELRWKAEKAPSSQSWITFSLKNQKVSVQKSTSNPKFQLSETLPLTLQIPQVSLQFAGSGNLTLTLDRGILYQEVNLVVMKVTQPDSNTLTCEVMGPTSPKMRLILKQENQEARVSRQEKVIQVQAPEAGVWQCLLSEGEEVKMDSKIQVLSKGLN
T2 sequence (chain (part 2 of 2)): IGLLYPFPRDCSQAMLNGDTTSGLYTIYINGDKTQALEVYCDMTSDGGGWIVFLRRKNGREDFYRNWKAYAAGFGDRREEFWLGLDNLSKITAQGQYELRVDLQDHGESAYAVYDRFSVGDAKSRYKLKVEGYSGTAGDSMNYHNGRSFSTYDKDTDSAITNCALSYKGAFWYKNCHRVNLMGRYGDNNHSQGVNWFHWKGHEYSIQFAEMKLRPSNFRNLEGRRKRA
Procedure: as §1

[3] = target: T3, human His-FBG (human, UniProt P24821 1974-2201); assay: SPR, captured IgG4, 25 C, mean of 3
T3 construct: non-citrullinated control, incubated in deimination buffer without PAD enzyme; also called unmodified His-FBG; not shown: His tag
T3 sequence: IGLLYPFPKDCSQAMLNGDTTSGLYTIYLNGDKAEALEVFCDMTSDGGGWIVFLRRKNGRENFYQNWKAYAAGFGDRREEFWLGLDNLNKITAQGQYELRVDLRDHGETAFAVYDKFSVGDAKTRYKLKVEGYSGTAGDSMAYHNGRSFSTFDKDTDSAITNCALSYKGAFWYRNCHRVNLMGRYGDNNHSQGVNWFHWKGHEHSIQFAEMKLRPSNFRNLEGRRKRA
Procedure: (§2) Purified human His-FBG was citrullinated using either peptidylarginine deiminase 2 (PAD2; MQ-16.201-2.5, Modiquest, NL) or peptidylarginine deiminase 4 (PAD4; MQ-16.203-2.5, Modiquest, NL) according to the supplier's instructions. […] Aliquots of His-FBG in deimination buffer were incubated for 2 h at 37° C. in the absence of added PAD enzyme, for use as non-citrullinated control protein. Citrullinated and unmodified His-FBG proteins were used in SPR experiments as described below.
(§3) SPR experiments were performed on a BIAcore 3000 instrument. Anti-human IgG (GE Healthcare) was covalently coupled to the surface of a CM5 sensor chip using amino coupling chemistry. […] The flow rate was 5 μl/min in the immobilization experiments and 20 μl/min for kinetic analyses. The sensor chip surface was regenerated using 3 M MgCl₂. Data were analysed using BIAevaluation program 4.1 (GE Healthcare).

[4] = target: T4, human His-FBG citrullinated with PAD2 (human, UniProt P24821 1974-2201, arginines citrullinated by peptidylarginine deiminase 2; positions not stated); assay: SPR, captured IgG4, 25 C, mean of 3
T4 construct: also called His-FBG + PAD2; citrullinated His-FBG; not shown: His tag
T4 sequence: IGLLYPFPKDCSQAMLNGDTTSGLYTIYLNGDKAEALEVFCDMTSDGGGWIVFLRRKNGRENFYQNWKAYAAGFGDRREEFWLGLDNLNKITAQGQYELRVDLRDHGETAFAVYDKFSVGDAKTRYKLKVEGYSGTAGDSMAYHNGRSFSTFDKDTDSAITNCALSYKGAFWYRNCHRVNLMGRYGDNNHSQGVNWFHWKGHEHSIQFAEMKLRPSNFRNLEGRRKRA
Procedure: as §2, §3

[5] = target: T5, human His-FBG citrullinated with PAD4 (human, UniProt P24821 1974-2201, arginines citrullinated by peptidylarginine deiminase 4; positions not stated); assay: SPR, captured IgG4, 25 C, mean of 3
T5 construct: also called His-FBG + PAD4; citrullinated His-FBG; not shown: His tag
T5 sequence: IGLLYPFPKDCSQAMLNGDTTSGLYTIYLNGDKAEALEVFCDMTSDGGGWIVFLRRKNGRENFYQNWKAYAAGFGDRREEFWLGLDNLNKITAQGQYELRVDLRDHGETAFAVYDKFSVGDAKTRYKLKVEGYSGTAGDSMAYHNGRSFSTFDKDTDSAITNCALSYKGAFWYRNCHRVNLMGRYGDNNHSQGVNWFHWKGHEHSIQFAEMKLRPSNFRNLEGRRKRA
Procedure: as §2, §3

[6] = target: T1, human tenascin-C rCd4-His-FBG; assay: SPR off-rate screen, captured IgG4 supernatant, 25 C
Procedure, shortened: (§4)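 SPR at 25 °C: IgG4 (S241P) from culture supernatant, diluted 1:2 in 2×PBS-T, captured on anti-human Fc surface; antigen injected at a fixed 15 nM (human and mouse TNC rCd4-His-FBG) or 100 nM (human TNR rCd4-His-FBG), 30 μl/min. Association 1 min, dissociation 5 min; off-rates from reference-subtracted 1:1 fits.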

[7] = target: T2, mouse tenascin-C rCd4-His-FBG; assay: as above
Procedure, shortened: as §4

[8] = target: T6, human tenascin-R rCd4-His-FBG (rat; human, UniProt P05540 207-392, limits assumed); assay: SPR off-rate screen, captured IgG4 supernatant, 25 C; SPR off-rate screen, native antigen at 100 nM, IgG4 in supernatant, 25 C
T6 construct: domain: domains 3 and 4; C-terminal FBG fusion; also called Hu TNR; human TNR rCd4-His-FBG; not shown: 6His tag
T6 sequence (chain (part 1 of 2)): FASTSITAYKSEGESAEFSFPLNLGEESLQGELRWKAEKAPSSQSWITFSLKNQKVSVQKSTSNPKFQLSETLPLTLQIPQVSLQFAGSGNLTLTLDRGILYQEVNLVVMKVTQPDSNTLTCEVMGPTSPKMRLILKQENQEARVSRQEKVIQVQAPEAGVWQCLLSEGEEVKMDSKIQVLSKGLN
T6 sequence (chain (part 2 of 2)): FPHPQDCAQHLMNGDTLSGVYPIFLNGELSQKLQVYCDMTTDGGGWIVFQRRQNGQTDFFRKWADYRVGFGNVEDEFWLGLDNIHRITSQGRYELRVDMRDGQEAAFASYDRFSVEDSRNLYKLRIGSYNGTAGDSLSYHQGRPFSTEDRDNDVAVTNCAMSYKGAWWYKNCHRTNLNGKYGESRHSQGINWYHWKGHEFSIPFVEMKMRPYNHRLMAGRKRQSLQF
Procedure: The 31 scFv of interest were sub-cloned into a human IgG4 expression vector for generation of antibodies as human IgG4 with a hinge-stabilising mutation (S241P; Angal et al, 1993). […] Briefly, surface plasmon resonance (SPR) experiments were performed using a BIAcore T100 instrument and followed the protocol according to the Human antibody capture kit protocol (GE, BR-1008-39). For off-rate screening, 10,000 response units (RU) of anti-human Fc IgG (GE, BR-1008-39) was immobilised on flow-cells (FC1 and FC2) of a Series 5 CM5 dextran sensor chip (BR-1005-30) using EDC/NHS cross-linking chemistry according to the amine coupling kit protocol (GE, BR-1000-50). Culture supernatants containing expressed IgG4 were diluted 1:2 with 2×PBS-T and injected into FC2 (flowrate 5 μl/min, 60 s contact time) to enable antibody capture at 25° C. […] A fixed concentration of antigen (15 nM of human and mouse TNC rCd4-His-FBG and 100 nM of human TNR rCd4-His-FBG) was injected with a flow-path via FC 1 (reference flow cell) and FC 2 (antibody capture flow cell), with a flow rate of 30 μl/min, and the association and dissociation phases measured over 1 and 5 min time periods, respectively. […] Off rates were determined by reference cell subtraction and fitting the sensogram experimental data assuming a 1:1 interaction using BIAevaluation software (GE, BR-1005-97).

- Kd [1]: 240 pM
- koff [1]: 0.00112 s⁻¹
- kon [1]: 4.71e+06 M⁻¹ s⁻¹
- Kd [2]: 4500 pM
- koff [2]: 0.00138 s⁻¹
- kon [2]: 300000 M⁻¹ s⁻¹
- Kd [3]: 170 pM
- koff [3]: 0.00068 s⁻¹
- kon [3]: 4.1e+06 M⁻¹ s⁻¹
- Kd [4]: 320 pM
- koff [4]: 0.00096 s⁻¹
- kon [4]: 3e+06 M⁻¹ s⁻¹
- Kd [5]: 320 pM
- koff [5]: 0.00078 s⁻¹
- kon [5]: 2.6e+06 M⁻¹ s⁻¹
- koff [6]: 0.00015 s⁻¹
- koff [7]: 0.03 s⁻¹
- koff [8]: 0.1 s⁻¹
B1: B12 human IgG4 (antibody, V domains shown)
VH: QVQLVESGGGLVQPGRSLRLSCAASGFTFDDYAMHWVRQAPGKGLEWVSGISGSGGSTYYADSVKGRFTISRDNAKNSLYLQMNSLRAEDTALYYCAKDISAVPDTFDIWGQGTMVTVSS
VL: DIQMTQSPASLPTPVGDRVTITCRASQYIQGFLNWYQQKPGKAPKLLIYDASNLETGVPSRFSGSGSGTDFTLTISSLQPEDFATYYCQQSYSTPQTFGQGTKVDIKR
notes: human IgG4 with hinge S241P; also called B12 parent; B12-hIgG4
